The data set has as its system MS2 coat protein. Put plainly: apparent KD of MS2 coat protein; designed switch direction (-1 OFF switch, 1 ON switch): -1; higher = weaker reporter binding. The method, boiled down:
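On Illumina chips, designed RNA switches with common flanks were made by stalled E. coli RNA polymerase. Titrations with SNAP-549-labelled MS2 coat protein, doubling from 0.7 or 1.5 nM to 3 µM, were done with no input, with 200 uM small-molecule ligand, or with an oligonucleotide input. Apparent KD is the median per design over clusters, from curve fits of normalised cluster fluorescence.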

Setting [1] is: Eterna round: R95, input ligand: microRNA oligo, concentration not stated.
[2] abbreviates: input ligand: microRNA oligo, concentration not stated.
Where [3] appears, read: Eterna round: R95, input ligand: FMN 200 uM.
The mark [4] stands for this setting: Eterna round: R95, input ligand: none.

From the supplement of paper PMC9170038 come the findings set out here.

With “AUUGAGCUAGGAUAUACAUGAGGAUCACCCAUGUAGCAAAAUAGCUAUACAUGAUCGGGUAGAAGGAGCGCGAG [Tirivela] (puzzle: Exclusion 3)”, the “apparent KD of MS2 coat protein” value under setting [1] was determined as 14.3 nM.
As to “AUUGUGUGAGGAUAUUAGUAGUAAAUAAAUAAAAUUAUUACUGAGAAGGCACAUGAGGAUCACCCAUGUUCCUU [Salish 062 v5] (Eterna round: R97, puzzle: Exclusion 4)”, the “apparent KD of MS2 coat protein” value stood at 131 nM (input ligand: FMN 200 uM) and 18.9 nM (input ligand: none).
In the case of “AUUGUUUGAUACCUCUAAUACAUGAGGAUCACCCAUGUUAUCGAGGAUAUGCAGUAGAGUGGAGAGCAGAAGGCGAAGUAAGUG [JR_ExcNG3_Sub028] (Eterna round: R96, puzzle: Exclusion NG 3)”, the “apparent KD of MS2 coat protein” value is, setting by setting: (input ligand: FMN 200 uM) 27 nM; under setting [2], 14.4 nM; (input ligand: none) 13.7 nM.
Take “AUUUAGAGAGGAUAUAUUAUGUGAAACAUGAGGAUCACCCAUGUAAUAUGAUGGAUGUAAAUAGAAGGCUCAUUUA [Mat - Exclusion 5 - JL mod - D23] (puzzle: Exclusion 5)”: the “apparent KD of MS2 coat protein” value under setting [3] was found to be 32.9 nM, the “apparent KD of MS2 coat protein” value under setting [1] stood at 43.5 nM and the “apparent KD of MS2 coat protein” value under setting [4] came out at 56.4 nM.
Consider “AUUUAGUCAGGAUAUUAGUAGUAAAUGAAUAAAAUUAUUACUGAGAAGGGACAUGAGGAUCACCCAUGUGUCUA [Mat - Exclusion 4 - Eli Mod - D8] (Eterna round: R97, puzzle: Exclusion 4)”, for which the “apparent KD of MS2 coat protein” value by setting is: (input ligand: FMN 200 uM) 60 nM; (input ligand: none) 28.5 nM.
“AUUUGCACGCUGCGGUCCUACAUGAGGAUCACCCAUGUGGUCUGGUGGCGUGGGUCGCCGGACUUGGCUCGUCUUGG [salish99_S_TOV1_R5_034] (Eterna round: R97, puzzle: Sensor, turn-off variant 1)”: the “apparent KD of MS2 coat protein” value (input ligand: FMN 200 uM) was found to be 14.9 nM and the “apparent KD of MS2 coat protein” value (input ligand: none) turned out to be 14.7 nM.
As to “AUUUUAAUAUAGGAUAUCGAAUUUAUUAUUUAACGAGAAGGAUAAACAUGAGGAUCACCCAUGUGGUAUCAUGG [JMFs Solution 2] (puzzle: Exclusion 6)”, the “apparent KD of MS2 coat protein” value under setting [1] was 113 nM.
For the sequence “AUUUUGAAUGUAAGGAUAUCAAUACGAGGGCGUGAUGAGAAGGUACAUGAGGAUCACCCAUGUGGCGAGCUCAC [BmEX4 B.24] (Eterna round: R97, puzzle: Brourd's mod of Exclusion 4)”, the “apparent KD of MS2 coat protein” value is, setting by setting: (input ligand: FMN 200 uM) 33.5 nM; (input ligand: none) 23.7 nM.
As for “AUUUUGUCAGGAUAUGAGUAGUAGGACGAAAGUGUUAUUAUUUAGAAGGGACAUGAGGAUCACCCAUGUUUUCC [Bring Us a Shrubbery-04] (puzzle: Exclusion 4)”, the “apparent KD of MS2 coat protein” value under setting [1] came to 12 nM.
On the same count and under the same terms, with “CAAAACUGAGGAUAUACAUGAGGAUCACCCAUGUCCAAGGUCCUGGGCGGAUGCUGCUGUAGAAGGCGGAAAGA [Diatsobi] (puzzle: Exclusion 3)” the figure was 21.8 nM.
In the case of “CAAAAGGGAGGAUAUACAUGAGGAUCACCCAUGUACGGUUCACGGGUAGGUGCGUAUAGUAGAAGGCCCGCAUA [Abiace] (Eterna round: R97, puzzle: Exclusion 3)”, the “apparent KD of MS2 coat protein” value by setting is: (input ligand: FMN 200 uM) 172 nM; (input ligand: none) 83.4 nM.
Regarding “CAAACAAGCGAAAGAUCCCACAUGAGGAUCACCCAUGUGCUCGUCUUAUAAGGUACUGUGACGAAAGUCACGGUACC [Sensor 3, v1 - 91 v21] (Eterna round: R97, puzzle: Sensor, turn-off variant 1)”, the “apparent KD of MS2 coat protein” value was 38.4 nM (input ligand: FMN 200 uM) and 45.3 nM (input ligand: none).
“CAAACGGCUUUAGGAUAUGACUUUUCGUACAUGAGGAUCACCCAUGUCAGGACUGGUGGUGCGAGUCAGAAGGAGAGUCAAGAA [Eternabot solution 30] (Eterna round: R96, puzzle: Exclusion NG 2)”: the “apparent KD of MS2 coat protein” value was found to be 94.3 nM (input ligand: FMN 200 uM), 99.2 nM under setting [2] and 176 nM (input ligand: none).
For the sequence “CAAAUUGCAGGAUAUACUGGGCCAGAGCCAUCGUGUAUUCCACAUGAGGAUCACCCAUGUAGAAGGGCACGUAC [Aqueran] (puzzle: Exclusion 2)”, the “apparent KD of MS2 coat protein” value under setting [1] is 23.8 nM.
In the case of “CAACAGGGAGGAUAUACAUGAGGAUCACCCAUGUUCGAGCGUCCUUGAACUACCUCUGGUAGAAGGCCCACACG [Bibiorbi] (Eterna round: R97, puzzle: Exclusion 3)”, the “apparent KD of MS2 coat protein” value came to 147 nM (input ligand: FMN 200 uM) and 56.9 nM (input ligand: none).
Turning to “CAACCGAAUCAGUGAAUGCCGACAUGAGGAUCACCCAUGUGUGAGGAUAUUUUAGUAGAGAACUAAAAGAAGGCACCUGGAAAG [Eternabot solution 20] (Eterna round: R96, puzzle: Exclusion NG 3)”, the “apparent KD of MS2 coat protein” value is, setting by setting: (input ligand: FMN 200 uM) 70.2 nM; under setting [2], 22.4 nM; (input ligand: none) 39.8 nM.
For “CAACUGCAUGUGAGGAUAUGCACCGGCCAAGCCGGGCAGAAGGCACAUGAGGAUCACCCAUGUCAUCCUAUUGC [Esusgeraon] (puzzle: Brourd's mod of Exclusion 4)”, the “apparent KD of MS2 coat protein” value under setting [1] was found to be 12.4 nM.
Turning to “CAAGUGCCGGAAGGAUAUCAGCGAUGUCACGCUUGAGAAGGUCUGUGCACAUGAGGAUCACCCAUGUCCGCCAGACUCCUUAAC [Eternabot solution 21] (Eterna round: R96, puzzle: Exclusion NG 1)”, under setting [2], the “apparent KD of MS2 coat protein” value was 7.68 nM.
Consider “CAAUAAAAGCGAGGAUAUCCGUAUAAAGAUACAGGAGAAGGUGCGGGUACUCCUCACAUGAGGAUCACCCAUGUAAGAAAUAAA [Erxeraso] (Eterna round: R96, puzzle: Exclusion NG 1)”, for which the “apparent KD of MS2 coat protein” value (input ligand: FMN 200 uM) turned out to be 67.4 nM, the “apparent KD of MS2 coat protein” value under setting [2] amounted to 33.7 nM and the “apparent KD of MS2 coat protein” value (input ligand: none) was 57.1 nM.
Regarding “CACAAGCUUUUUUGAUGCAUUUUAGUUGGUUGCCUUUUUACAUGAGGAUCACCCAUGUUUGUGUAGCUCGAUCUUUU [JR_SV3TOV2_Sub078] (puzzle: Sensor v3, turn-off variant 2)”, the “apparent KD of MS2 coat protein” value under setting [3] was 36.5 nM, the “apparent KD of MS2 coat protein” value under setting [1] was determined as 29 nM and the “apparent KD of MS2 coat protein” value under setting [4] came to 41.2 nM.
For “CACCGUAACAGAGGAUAUGAUACAUGAGGAUCACCCAUGUAAUAAAUGAGAAUUUCGAAUGUACCUCAGAAGGCUGGAACCGGC [Ostricism 80 - Jieux - Exclusion NG 2] (Eterna round: R96, puzzle: Exclusion NG 2)”, the “apparent KD of MS2 coat protein” value under setting [2] worked out at 33.9 nM.
As for “CACCGUUACUGAGGAUAUCCUACAUGAGGAUCACCCAUGUAAUAAAUGAGAAUUUCGGAUGUAUUGGAGAAGGCAGAAAUCGGC [Ostricism 62 - Jieux - Exclusion NG 2] (Eterna round: R96, puzzle: Exclusion NG 2)”, the “apparent KD of MS2 coat protein” value by setting is: (input ligand: FMN 200 uM) 52.7 nM; under setting [2], 48.4 nM; (input ligand: none) 58.4 nM.
On the same counts, the results for “CACCGUUAGUGAGGAUAUAUUACAUGAGGAUCACCCAUGUAAUAAAUGAGAAUUUCGGAUGUAUGAUAGAAGGCACAAAUCGGC [Ostricism 52 - Jieux - Exclusion NG 2] (Eterna round: R96, puzzle: Exclusion NG 2)” are 11.2 nM, 11.2 nM and 13.1 nM.
For “CACCUGAAGAGAGGAUAUGAUACAUGAGGAUCACCCAUGUAAUAAAUGAGAAUUUCGAAUGUAAUUCAGAAGGCUCGAUAAGGC [Ostricism 100 - Jieux - Exclusion NG 2] (Eterna round: R96, puzzle: Exclusion NG 2)”, the “apparent KD of MS2 coat protein” value reads like this: (input ligand: FMN 200 uM) 121 nM; under setting [2], 45.6 nM; (input ligand: none) 55.3 nM.
For “CACGAAUAGUGAGGAUAUGUGCGACAAAGUUGCACAGAAGGCACAUGAGGAUCACCCAUGUAAGCUAGGUCGAAAGACCUAGCG [Omei Exc(NG)1 A] (Eterna round: R96, puzzle: Exclusion NG 1)”, the “apparent KD of MS2 coat protein” value was 37.4 nM (input ligand: FMN 200 uM), 15.3 nM under setting [2] and 24.2 nM (input ligand: none).
On to “CACGGCUUAGGAUAUACAUGAGGAUCACCCAUGUGGGAAAGCCAAGGCGUGGUAAAGUGUAGAAGGAAGAAGGA [Solaedra] (puzzle: Exclusion 3)”, for which, under setting [1], the “apparent KD of MS2 coat protein” value came out at 12.5 nM.
Regarding “CACGUGAGAGGAUAUACAUGAGGAUCACCCAUGUAUACAGCAGGGUAUGAAGACUUGGGUAGAAGGCUCGCGUG [Eternabot (L2) Solution 39] (Eterna round: R97, puzzle: Exclusion 3)”, the “apparent KD of MS2 coat protein” value reads like this: (input ligand: FMN 200 uM) 173 nM; (input ligand: none) 270 nM.
Turning to “CAGACACAUGAGGAUCACCCAUGUGAGGAUAUGCGUACGUUGUCCGUAGGCGACGUGCGCAGAAGGCGCAAAGG [JL-ex1-3.10 Eli mod] (puzzle: Exclusion 1)”, the “apparent KD of MS2 coat protein” value is, setting by setting: under setting [3], 65.7 nM; under setting [1], 67 nM; under setting [4], 79.4 nM.
“CAGCGUGAAGGAUAUACAUGAGGAUCACCCAUGUGCAACUCUCCAACUCGGACUCCCUGUAGAAGGUCGGCUUU [Eternabot (L2) Solution 88] (Eterna round: R97, puzzle: Exclusion 3)”: the “apparent KD of MS2 coat protein” value came to 26.9 nM (input ligand: FMN 200 uM) and 28 nM (input ligand: none).
For “CAGCUGAAAGUCAGGAUAUCUAGAGCUUCGGCUCUAGAGAAGGGACAUGAGGAUCACCCAUGUGAUCACAGCUG [BmEx4/4-A1] (Eterna round: R97, puzzle: Brourd's mod of Exclusion 4)” the same measures were 152 nM and 1900 nM.
For “CAGCUGAAAGUGAGGAUAUCGACUGCUUCGGCAGUCGAGAAGGCACAUGAGGAUCACCCAUGUCUCAACAGCUG [BmEx4/1-A4] (Eterna round: R97, puzzle: Brourd's mod of Exclusion 4)” the same measures were 70.3 nM and 20.7 nM.
